Reference: paper PMC6232179

Molecular target: COX-2 (prostaglandin endoperoxide synthase 2, PTGS2), purified His-tagged protein (UniProt P35354)
Test: SPR; COX-2 immobilised on a CM5 chip, cyclosporine A flowed at increasing concentrations; 10 mM Hepes pH 7.2, 150 mM NaCl, 1 mM EDTA, 0.005% P20, 2% ethanol; 25 °C, 30 µl/min; 1:1 Langmuir model; triplicate

COX-2 (prostaglandin endoperoxide synthase 2, PTGS2), purified His-tagged protein, sequence (P35354 18-604): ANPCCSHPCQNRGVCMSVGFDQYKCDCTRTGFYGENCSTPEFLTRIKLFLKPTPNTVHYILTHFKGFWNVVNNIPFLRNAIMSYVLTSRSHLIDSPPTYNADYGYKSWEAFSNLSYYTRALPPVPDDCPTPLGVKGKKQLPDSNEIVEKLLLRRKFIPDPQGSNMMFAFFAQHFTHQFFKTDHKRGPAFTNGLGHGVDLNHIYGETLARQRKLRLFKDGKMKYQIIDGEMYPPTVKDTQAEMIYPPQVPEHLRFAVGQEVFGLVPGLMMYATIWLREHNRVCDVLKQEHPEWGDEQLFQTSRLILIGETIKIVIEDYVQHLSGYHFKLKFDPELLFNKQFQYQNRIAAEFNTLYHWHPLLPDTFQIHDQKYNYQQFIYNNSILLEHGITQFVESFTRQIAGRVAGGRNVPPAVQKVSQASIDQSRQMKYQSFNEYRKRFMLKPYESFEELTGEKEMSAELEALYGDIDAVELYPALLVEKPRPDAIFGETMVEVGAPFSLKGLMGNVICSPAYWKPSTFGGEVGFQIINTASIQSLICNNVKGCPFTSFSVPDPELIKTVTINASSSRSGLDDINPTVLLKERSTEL

- Kd: 0.895 µM
Substance: Cyclosporine A (peptide)
